Assays:
[1] = biological target: mitochondrial respiratory complex III dimer (Chlamydomonas reinhardtii); test: cryo-EM structure
[2] = biological target: mitochondrial respiratory complex IV monomer (Chlamydomonas reinhardtii); test: cryo-EM structure

Substance: cytochrome c (from UniProt P15451 1-112) (natural protein)
- stoichiometry N (cyt. c per complex III dimer) [1]: 2
- stoichiometry N (cyt. c per complex IV monomer) [2]: 1

From publication doi:10.1101/2024.09.03.610704
